Measured values from the supplement of paper PMC10126150.
± gives the standard deviation of the averaged measurements.

system: ATP; assay: switch fluorescence ratio, 500 uM ATP over buffer (Cy3 cluster intensity, sum of 5 cycles each) (fold (ratio)); higher = stronger signal-on switching upon ATP binding; sequences stand for … in TCGTCGGCAGCGTCAGATGTGTATAAGAGACAGTTTTTTTTTTTTTTTTTTTTTTTTT…TC; settings: aptamer strand: ATP DNA aptamer (quencher-CACCTGGGGGAGTATTGCGGAGGAAGG + anchor), 100 nM annealed; ATP concentration: 500 uM
Procedure, shortened: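 Exposure to 500 uM ATP lasted 15 min at 22 °C before imaging, and a selection-buffer image was taken beforehand, for Cy3-labelled switching-strand clusters on a modified Illumina MiSeq flow-cell annealed to 100 nM quencher-labelled ATP aptamer. Five buffer/ATP cycles were run with NaOH stripping and re-annealing between them. The fluorescence ratio per cluster is summed target-cycle over summed buffer-cycle Cy3 intensity, averaged per switch-domain sequence. Clusters outside 100-1000 RFU were excluded.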

| Sequence | switch fluorescence ratio |
| --- | --- |
| CACTATTAGT | 0.979 ± 0.01 |
| CACTCAGGGA | 1.04 ± 0.046 |
| CACTCATTGG | 1.039 ± 0.008 |
| CACTCGAGTC | 0.978 ± 0.011 |
| CACTCGGAAT | 1.19 ± 0.03 |
| CACTCTCTGA | 0.969 ± 0.045 |
| CACTGCGCGC | 1.11 ± 0.017 |
| CACTGGAGAA | 1.044 ± 0.0051 |
| CACTGGGCGA | 3.28 ± 3.2 |
| CACTGGGGGC | 1.02 ± 0.036 |
| CACTGGTGGC | 1.06 ± 0.022 |
| CACTGTGTGG | 0.987 ± 0.042 |
| CACTTAGGCT | 1.01 ± 0.011 |
| CACTTATGTG | 0.99 ± 0.038 |
| CACTTGGAGC | 0.944 ± 0.059 |
| CACTTGTGAC | 1 ± 0.016 |
| CACTTTCACA | 1.17 ± 0.055 |
| CAGAAAAAAC | 1.05 ± 0.035 |
| CAGAAAAGCA | 1.03 ± 0.017 |
| CAGAAGCGGA | 1.19 ± 0.051 |
| CAGAATTAA | 1 ± 0.037 |
| CAGACGGTTT | 1.095 ± 0.0078 |
| CAGACGTCGA | 1.05 ± 0.066 |
| CAGAGATTAG | 0.996 ± 0.043 |
| CAGAGATTTA | 0.995 ± 0.024 |

| Sequence | switch fluorescence ratio |
| --- | --- |
| CAGAGGAAGT | 1.02 ± 0.04 |
| CAGAGGAGTG | 0.9738 ± 0.0038 |
| CAGAGGGAGG | 1.02 ± 0.033 |
| CAGAGGGGGA | 1.04 ± 0.036 |
| CAGAGGGGGC | 1.012 ± 0.0071 |
| CAGAGTGGGA | 1.03 ± 0.016 |
| CAGATAAGTG | 1.01 ± 0.068 |
| CAGATACAAG | 1.036 ± 0.0095 |
| CAGATAGGGG | 1.12 ± 0.19 |
| CAGATGTACC | 1.08 ± 0.028 |
| CAGATTGAAT | 0.982 ± 0.024 |
| CAGATTTGTT | 0.992 ± 0.018 |
| CAGATTTTGA | 0.9804 ± 0.0045 |
| CAGCATAAAG | 1.02 ± 0.057 |
| CAGCATCATC | 1.242 ± 0.011 |
| CAGCCCTAGG | 1.09 ± 0.053 |
| CAGCCTATGG | 0.991 ± 0.05 |
| CAGCCTGCGG | 1.01 ± 0.029 |
| CAGCGCCATA | 1.078 ± 0.0042 |
| CAGCGCCGGG | 0.994 ± 0.017 |
| CAGCGGGACC | 1.03 ± 0.025 |
| CAGCGGGCGT | 0.963 ± 0.01 |
| CAGCTAAAGG | 1.02 ± 0.03 |
| CAGCTACGTG | 1.0258 ± 0.00037 |
| CAGCTAGGTG | 1.54 ± 0.029 |

| Sequence | switch fluorescence ratio |
| --- | --- |
| CAGCTATCTT | 1.039 ± 0.01 |
| CAGCTCTAAG | 1 ± 0.013 |
| CAGCTCTGTT | 0.984 ± 0.041 |
| CAGCTGGCGC | 0.9949 ± 0.0083 |
| CAGCTTGGGG | 1.019 ± 0.0089 |
| CAGCTTGTTT | 1.01 ± 0.02 |
| CAGCTTTAAT | 1.03 ± 0.02 |
| CAGCTTTTGG | 0.993 ± 0.039 |
| CAGGAAATTG | 1.02 ± 0.052 |
| CAGGAAGCTG | 1.04 ± 0.11 |
| CAGGAAGGGA | 0.9958 ± 0.0064 |
| CAGGAAGGGG | 1 ± 0.032 |
| CAGGACTTGT | 0.969 ± 0.02 |
| CAGGACTTTT | 1 ± 0.0083 |
| CAGGAGACTA | 0.9979 ± 0.0094 |
| CAGGAGGGAG | 1.01 ± 0.011 |
| CAGGAGGGCA | 1.042 ± 0.0049 |
| CAGGATAACT | 1 ± 0.027 |
| CAGGATGCGA | 1.05 ± 0.016 |
| CAGGATGTAT | 0.9852 ± 0.0029 |
| CAGGATTAAA | 0.959 ± 0.029 |
| CAGGATTGTT | 1.02 ± 0.04 |
| CAGGCCTCTT | 0.9943 ± 0.0035 |
| CAGGCCTGAC | 1.02 ± 0.061 |
| CAGGCGTTAG | 1 ± 0.064 |

| Sequence | switch fluorescence ratio |
| --- | --- |
| CAGGCTCTTT | 0.978 ± 0.036 |
| CAGGGAAAGA | 1 ± 0.011 |
| CAGGGAAGGG | 1.01 ± 0.049 |
| CAGGGATGGA | 0.981 ± 0.013 |
| CAGGGCAGCG | 1.02 ± 0.04 |
| CAGGGCGGGG | 0.979 ± 0.037 |
| CAGGGCTATG | 1.01 ± 0.016 |
| CAGGGCTTAG | 1.01 ± 0.035 |
| CAGGGGAAAT | 0.993 ± 0.029 |
| CAGGGGCAAT | 2.7 ± 0.12 |
| CAGGGGCGTG | 0.9921 ± 0.0079 |
| CAGGGGGATT | 1.03 ± 0.042 |
| CAGGGGGGAC | 1 ± 0.022 |
| CAGGGGGTCA | 0.982 ± 0.015 |
| CAGGGGTACG | 0.991 ± 0.042 |
| CAGGGGTGTG | 0.996 ± 0.0076 |
| CAGGGGTTTT | 1.32 ± 0.54 |
| CAGGGTAGAG | 1 ± 0.043 |
| CAGGGTCGGG | 0.966 ± 0.035 |
| CAGGGTGAAT | 0.9909 ± 0.0056 |
| CAGGGTGAGT | 1.01 ± 0.022 |
| CAGGGTGGGG | 1.03 ± 0.048 |
| CAGGGTTCCG | 1.17 ± 0.28 |
| CAGGTAAGGC | 1.04 ± 0.033 |
| CAGGTAAGGT | 1.014 ± 0.0035 |

| Sequence | switch fluorescence ratio |
| --- | --- |
| CAGGTACATA | 1.055 ± 0.0086 |
| CAGGTAGGTT | 1.02 ± 0.068 |
| CAGGTATAAG | 1.01 ± 0.061 |
| CAGGTATTAC | 1.11 ± 0.026 |
| CAGGTCCAGT | 0.993 ± 0.02 |
| CAGGTCTTGG | 1.01 ± 0.03 |
| CAGGTGCGTT | 1.58 ± 0.028 |
| CAGGTGGTGG | 1.02 ± 0.02 |
| CAGGTGTCTG | 1.13 ± 0.032 |
| CAGGTTCTAC | 1.015 ± 0.0032 |
| CAGGTTGGTT | 1 ± 0.027 |
| CAGGTTTGTG | 1.01 ± 0.018 |
| CAGGTTTTTG | 0.983 ± 0.028 |
| CAGTAAAAAG | 1.03 ± 0.025 |
| CAGTAAGATC | 1.026 ± 0.0056 |
| CAGTACTCTT | 1.01 ± 0.03 |
| CAGTAGGCAG | 0.95 ± 0.016 |
| CAGTAGTTGC | 1.091 ± 0.0086 |
| CAGTATCGCG | 0.989 ± 0.005 |
| CAGTATGGGG | 0.9664 ± 0.0013 |
| CAGTATGTTT | 0.974 ± 0.044 |
| CAGTCATTTT | 0.984 ± 0.031 |
| CAGTCCCACG | 1.021 ± 0.0053 |
| CAGTCCGTTT | 1.02 ± 0.012 |
| CAGTCGGTTT | 1.013 ± 0.0088 |

| Sequence | switch fluorescence ratio |
| --- | --- |
| CAGTCGTCCT | 1.028 ± 0.0019 |
| CAGTCTAAGA | 1.03 ± 0.056 |
| CAGTCTAAGT | 1.02 ± 0.014 |
| CAGTCTTCTT | 1.02 ± 0.026 |
| CAGTCTTTTT | 1.03 ± 0.022 |
| CAGTGACTGT | 0.98 ± 0.034 |
| CAGTGAGAAC | 1.01 ± 0.025 |
| CAGTGATAAA | 1.008 ± 0.0066 |
| CAGTGATGGA | 1.007 ± 0.0046 |
| CAGTGATTTA | 0.981 ± 0.019 |
| CAGTGCATTG | 1.01 ± 0.023 |
| CAGTGCGGCT | 1.007 ± 0.0046 |
| CAGTGGAGCG | 0.964 ± 0.058 |
| CAGTGGCTTC | 1.01 ± 0.023 |
| CAGTGGGGTA | 0.966 ± 0.012 |
| CAGTGTGAAT | 1 ± 0.021 |
| CAGTGTTA | 0.985 ± 0.064 |
| CAGTGTTGGG | 1.002 ± 0.0016 |
| CAGTTAAAAA | 1.03 ± 0.012 |
| CAGTTAGATT | 1.01 ± 0.028 |
| CAGTTATCGT | 0.986 ± 0.016 |
| CAGTTATGGC | 0.999 ± 0.026 |
| CAGTTCAGTA | 0.992 ± 0.03 |
| CAGTTCATCG | 1.03 ± 0.025 |
| CAGTTCTGGG | 0.9872 ± 0.0097 |

| Sequence | switch fluorescence ratio |
| --- | --- |
| CAGTTCTGTA | 1.01 ± 0.038 |
| CAGTTGCGAG | 0.983 ± 0.042 |
| CAGTTGCTCA | 1.012 ± 0.0097 |
| CAGTTGGGAT | 0.969 ± 0.026 |
| CAGTTGGTTT | 0.97 ± 0.02 |
| CAGTTTACCG | 1.03 ± 0.019 |
| CAGTTTCGTT | 1.02 ± 0.037 |
| CAGTTTGTTA | 0.994 ± 0.036 |
| CAGTTTTGAT | 0.998 ± 0.019 |
| CAGTTTTGGG | 0.9713 ± 0.0016 |
| CATAAAGTAG | 1.02 ± 0.014 |
| CATAAATCAA | 0.9925 ± 0.006 |
| CATAACATAG | 0.995 ± 0.012 |
| CATAACGGGG | 0.957 ± 0.04 |
| CATAAGGGTG | 1.09 ± 0.038 |
| CATAAGTGGG | 0.973 ± 0.03 |
| CATAATCAGG | 1.04 ± 0.03 |
| CATAATCTAG | 1.03 ± 0.013 |
| CATACAGATC | 1.06 ± 0.031 |
| CATACATACG | 1.42 ± 0.056 |
| CATACGGTTT | 1.05 ± 0.024 |
| CATACGTCTG | 1.04 ± 0.017 |
| CATACTCAGA | 1 ± 0.045 |
| CATAGAGGGT | 0.951 ± 0.03 |
| CATAGAGTGT | 1 ± 0.021 |

| Sequence | switch fluorescence ratio |
| --- | --- |
| CATAGATTTT | 0.98896 ± 0.00042 |
| CATAGCTTTT | 1.01 ± 0.012 |
| CATAGGAGAC | 1 ± 0.017 |
| CATAGGGAGA | 1.006 ± 0.0042 |
| CATAGGGGAG | 1.042 ± 0.01 |
| CATAGGTCTA | 0.996 ± 0.019 |
| CATAGTGATG | 0.986 ± 0.026 |
| CATATATCAT | 1.008 ± 0.0095 |
| CATATATTT | 0.975 ± 0.015 |
| CATATCATGG | 0.988 ± 0.037 |
| CATATGAGGG | 0.991 ± 0.07 |
| CATATGCGTA | 0.9857 ± 0.0015 |
| CATATGTGCG | 0.992 ± 0.023 |
| CATATTCCTA | 0.999 ± 0.035 |
| CATATTCGGC | 0.988 ± 0.061 |
| CATATTGGAT | 1.02 ± 0.036 |
| CATATTTA | 0.992 ± 0.02 |
| CATATTTCGC | 1.03 ± 0.029 |
| CATATTTGAC | 1.04 ± 0.074 |
| CATCACATGT | 1 ± 0.018 |
| CATCATGTGT | 0.9714 ± 0.0043 |
| CATCCGGCGG | 1.17 ± 0.038 |
| CATCGAGATG | 1.01 ± 0.014 |
| CATCGAGCAA | 3.77 ± 3.5 |
| CATCGCTGTG | 0.998 ± 0.039 |
